Laboratory results: US20210252159A1, “CONJUGATES OF CARTILAGE-HOMING PEPTIDES” (priority 2018, published 2021)
Read-outs that look alike come from different tables or passages of the source. Positions of bridges follow the written chain, without caps; N, C: chain ends. Residues, ends and D or L forms follow the SMILES beside them. *: point of attachment. X2 = CC(CCC(C)C(=O)*)C(=O)OCC(=O)[C@@]12O[C@H](C3CCCCC3)O[C@@H]1C[C@H]1[C@@H]3CCC4=CC(=O)C=C[C@]4(C)[C@H]3[C@@H](O)C[C@@]12C

Experiments:
[1] = Hydrolysis assay of peptide-drug conjugates in rat plasma (free drug by LC/MS); assay type: in vitro ADME; conditions: rat plasma, 37° C., read-out: half-life (in vitro hydrolysis, free dCIC) (converted)
Method: Peptide-drug conjugate peptide(SEQ ID NO: 105)-DMA-dCIC was incubated in rat plasma at 37° C. Samples were removed at regular intervals, processed by solvent extraction, and analyzed by LC/MS to quantitate free dCIC. 11 time-points were measured between 5 min and 56 hours with 3 replicates per time point. The assay was repeated two times.
In order to determine hydrolysis rates, conjugates can be diluted in PBS, rat plasma, or human plasma and incubated at 37 degrees. Samples can be taken at designated time-points (e.g., 1, 2, 3, 5, 10, 15, 20, 25, 30, 45, 60, or 90 minutes and/or hours after administration). Internal standards such as triamcinolone acetonide (TAA) can be added as an internal standard, and then active agent/TAA can be extracted using acetonitrile, for example. The samples can be dried down, reconstituted, and analyzed by LC/MS. Data can be normalized using Dex AUC/TAA AUC. Percent hydrolysis can be calculated using the average ratio for active agent AUC/TAA AUC at a time point of maximal drug release. A general method can include using a lyophilized, purified peptide-drug conjugates reconstituted in DMSO following production to generate stock solution at 20 mg/mL. Each conjugate stock can be brought to 0.25 mg/mL in each hydrolysis condition (1×DPBS, human plasma and rat plasma) in triplicate and rocked at 37° C. To quantitate free active agent, 100 μl of the hydrolyzed conjugate solution can be transferred into 1 mL acetonitrile at 4° C. at which time all plasma proteins and intact conjugates can precipitate. This can be performed repeatedly to generate a series of time points (0 hr, 0.5 hr, 1 hr, 2 hr, 4 hr, 6 hr, 8 hr, 24 hr, 32 hr). The acetonitrile solution can be spun at 17,000 g for 5 minutes, and the supernatant removed and added to a 96 well block. The pellet can then be resuspended in 500 μl acetonitrile and re-pelleted as before. The supernatant can be removed and added to the same well in the block. Samples can be prepared for analysis by drying under a nitrogen stream followed by reconstitution in 110 μl 45:55 ACN:Citrate 10 mM pH 5.5. To ensure optimal recovery the block can be shaken via plate shaker at 7,000 rpm for 5 minutes during the reconstitution step. Prior to LC/MS the samples can be transferred to a 96 well plate and centrifuged at 6,500 g for 15 minutes. Analysis can be performed on an Agilent 1260 Infinity series HPLC with inline 6120 single quad MS using acetonitrile, water (+0.1% TFA) gradient (shown below) on an InfinityLab Poroshell SB-C18 column. Quantification of free active agent (or drug) can be achieved through integration of active agent peaks of the TIC.
Lyophilized, purified peptide-drug conjugates were reconstituted in DMSO following production to generate stock solution at 20 mg/mL. Each conjugate stock was brought to 0.25 mg/mL in each hydrolysis condition (1×DPBS, human plasma and rat plasma) in triplicate and rocked at 37° C.
To quantitate free dexamethasone (Dex), 100 μl of the hydrolyzed conjugate solution was transferred into 1 mL acetonitrile at 4° C. at which time all plasma proteins and intact conjugates precipitated. This was performed repeatedly to generate a series of time points (0 hr, 0.5 hr, 1 hr, 2 hr, 4 hr, 6 hr, 8 hr, 24 hr, 32 hr). The corticosteroid triamcinolone acetonide (25 μl, 0.1 mg/mL in 45:55 ACN:Citrate 10 mM pH 5.5) was supplemented into the acetonitrile solution as an internal standard. The acetonitrile solution was spun at 17,000 g for 5 minutes, and the supernatant removed and added to a 96 well block. The pellet was resuspended in 500 μl acetonitrile and re-pelleted as before. The supernatant was removed and added to the same well in the block.
Samples were prepared for analysis by drying under a nitrogen stream followed by reconstitution in 110 μl 45:55 ACN:Citrate 10 mM pH 5.5. To ensure optimal recovery the block was shaken via plate shaker at 7,000 rpm for 5 minutes during the reconstitution step. […]

[2] = system: IL-6; assay type: in vivo, rats; conditions: Dex 1274 and 127 nmol/kg IV; dCIC 1274 nmol/kg IA or 127 nmol/kg IV; conjugate 127, 51 and 13 nmol/kg IV; four hours after IL-1β
Method: In this example, an IL-1β Challenge rat model was used for the evaluation of peptides-drug conjugates. In this model, IL-1β is injected intra-articularly (i.e., IA) into a single knee joint to induce an inflammatory state that can be quantified by measuring IL-6 levels in joint lavage fluid (EXAMPLE 30). The primary goal of using this model was to induce a localized inflammatory state in the joint, as opposed to the systemic inflammation induced in other models, as a way to differentiate localized delivery of dCIC to the joint from systemic administration of the steroid. […] CBC counts were used to assess any reductions in various white blood cell levels, which are established markers of systemic exposure to glucocorticoids. […]
IL-6 was measured in knee lavage fluid using a Luminex assay and levels were normalized to total protein in the lavage fluid (FIG. 24). […] Terminal synovial fluid was collected from all animals and analyzed by Luminex 200 for IL-6 cytokine concentrations using EMD Milliplex MAP Rat Cytokine/Chemokine Magnetic Panel ([sequence]-65K). […] Thymus and spleen were harvested and their organ weights determined.

[3] = IL-1β challenge rat model, dose-ranging study: CBC, organ weights, tolerability; assay type: in vivo, rats
Method: IL-6 was measured in knee lavage fluid using a Luminex assay and levels were normalized to total protein in the lavage fluid (FIG. 24). Assessment of the PD inflammatory marker IL-6 in the knee joints of rats challenged with IL-1β was performed. Terminal synovial fluid was collected from all animals and analyzed by Luminex 200 for IL-6 cytokine concentrations using EMD Milliplex MAP Rat Cytokine/Chemokine Magnetic Panel ([…]-65K). […] Doses are listed as nmol/kg The masses of these doses are given below in TABLE 16. Two hours and forty-five minutes (i.e., 2.75 hrs) after administration of the test agents, animals were gently heated and blood was drawn from the tail vein for CBC analysis. Animals were then anesthetized with inhaled isoflurane and injected with 30 ng of IL-1β into the right knee (except for no IL-1β group). Four hours after administration of IL-1β (seven hours after administration of test agent) the animals were euthanized. Blood was drawn for a second CBC analysis and the right knee was lavaged for detection of IL-6 in the lavage fluid using a Luminex assay. Thymus and spleen were harvested and their organ weights determined.
In the same animals for which IL-6 secretion was measured, CBC data (e.g., lymphocyte counts) were also analyzed (FIG. 25) at an early time-point, 2.75 hrs post administration of the test article (FIG. 25A), and at euthanasia 7 hrs post administration (FIG. 25B). All treatments were administered as described above for the measurement of IL-6 secretion.
All treatments and test articles were administered as described above, except for an additional treatment group that received 510 nmol/kg of the peptide-drug conjugate peptide(SEQ ID NO: 105)-DMA-dCIC.

[4] = Solubility for formulation; assay type: physicochemical; conditions: aqueous formulation for systemic delivery
Excerpt: This study was designed to test whether dCIC delivered by a peptide would enable local suppression of inflammation in the joint while reducing systemic exposure to dCIC compared to that obtained when dosing therapeutic levels of dCIC alone. To enable systemic delivery of dCIC (unconjugated), it was formulated in 40% propylene glycol and then heated in order to solubilize the molecule. […] The peptide-drug conjugates of the disclosure can have a water solubility that allows conjugates to be formulated for systemic delivery, wherein at least some of the drugs used in the peptide-drug conjugates may not have sufficient water solubility for systemic administration when not conjugated to peptide. The conjugates comprising those drugs can home, target, migrate to, accumulate in, bind to, be retained by, or be redirected to a cartilage of a subject.

[5] = IL-1β challenge rat model, follow-up study: WBC, lymphocyte and monocyte counts; assay type: in vivo, rats; conditions: 2.75 hours; peptide 127, conjugate 51 and 13 nmol/kg IV; dCIC 1274 IA, 127 and 51 IV
Method: This study was conducted in an identical manner to the dose-ranging study described further above in this EXAMPLE with regard to timing of test agent administration, collection of blood for CBC, injection of IL-1β, and lavage of the knee following euthanasia. In this study, the blood collected at euthanasia was submitted for both CBC and serum chemistry, and thymus and spleen weights were not measured because there was no evidence of treatment effect for dCIC and peptide-dCIC on these organs in the dose-ranging study. Assessment of biomarkers of steroid exposure in blood of rats as part of a PD study as shown in FIG. 27: # denotes dose administered by IA injection, all other treatments were administered IV. The treatment groups included the following test articles: (i) no IL-1β negative control (denoted “No IL-1b”); (ii); vehicle only control for the peptide-drug conjugate (denoted as “vehicle”), which was (5% DMSO in PBS); (iii) the peptide-only control peptide(SEQ ID NO: 105) at 127 nmol/kg (denoted over “Peptide” as “127”); (iv) 3 dose levels of dCIC, 1274 nmol/kg IA, 127 nmol/kg IV, 51 nmol/kg IV (denoted over “dCIC” as “1274 #”, “127” and “51” respectively); (v) and 2 dose levels of peptide(SEQ ID NO: 105)-DMA-dCIC (51 nmol/kg, 13 nmol/kg) (denoted over “Peptide(SEQ ID NO: 105)-DMA-dCIC” as “51” and “13” respectively), each of (i)-(v) with n=10 animals per dose group, except for no Il-1β control and peptide-only control arms which had n=6 animals per dose group. Doses are listed as nmol/kg. Statistical analysis was conducted using Wilcoxon rank-sum test with correction for multiple comparisons using Holm's method.

CC[C@H](C)[C@@H]1NC(=O)[C@@H]2CSSC[C@H](NC(=O)[C@H](CCCNC(=N)N)NC(=O)[C@@H](NC(=O)[C@H](CC(N)=O)NC(=O)[C@@H](NC(=O)[C@@H]3CCCN3C(=O)[C@@H](NC(=O)CNC(=O)[C@H](CO)NC(=O)CNC(=O)C(C)CCC(C)C(=O)OCC(=O)[C@@]34O[C@H](C5CCCCC5)O[C@@H]3C[C@H]3[C@@H]5CCC6=CC(=O)C=C[C@]6(C)[C@H]5[C@@H](O)C[C@@]34C)C(C)C)[C@@H](C)CC)C(C)C)C(=O)N[C@@H](CCCNC(=N)N)C(=O)NCC(=O)N[C@@H](CO)C(=O)N[C@@H](CCCNC(=N)N)C(=O)N[C@@H](CC(=O)O)C(=O)N[C@H]3CSSC[C@H](NC(=O)[C@H](CCCNC(=N)N)NC(=O)[C@H](CO)NC(=O)[C@H](CC(N)=O)NC1=O)C(=O)N[C@@H](Cc1c[nH]cn1)C(=O)N[C@H](C(=O)N[C@H](C(=O)N1CCC[C@H]1C(=O)O)[C@@H](C)O)CSSC[C@H](NC(=O)[C@@H]1CCCN1C(=O)[C@H](CC(=O)O)NC(=O)[C@H](CC(C)C)NC3=O)C(=O)N[C@@H](CCCNC(=N)N)C(=O)N[C@@H](CCCNC(=N)N)C(=O)N[C@@H](C)C(=O)NCC(=O)N[C@@H](CCSC)C(=O)N[C@@H](CCCNC(=N)N)C(=O)N[C@@H](Cc1ccccc1)C(=O)NCC(=O)N[C@@H](CCCNC(=N)N)C(=O)N2 (some centres unmarked) [Compound 46, peptide(SEQ ID NO: 105)-DMA-dCIC] (X2-GSGVPINVRCRGSRDCLDPCRRAGMRFGRCINSRCHCTP-OH; disulfide 10-30, 16-35, 20-37 (inferred); C-terminus assumed)
half-life at 0.25 mg/mL ([1]; first assay, acetonitrile extraction of dCIC): 8.5 h
half-life at 0.25 mg/mL ([1]; second assay, ethyl acetate extraction of dCIC): 5 h
IL-6 concentration in knee lavage fluid normalized to total protein, compared to vehicle [2]: clear reduction in IL-6 concentration
monocytes (CBC) ([3]; 2.75 hours post-treatment): dose-dependent increase
neutrophils (CBC) ([3]; 2.75 hours post-treatment, higher doses): dose-dependent increase
effect on lymphocyte counts as compared to Dex and dCIC alone ([3]; 2.75 hrs post administration, equimolar dose of 127 nmol/kg): less effect on lymphocyte counts
spleen and thymus weights at euthanasia ([3]; 7 hours post administration): minimal effect on the weight of both organs
mortality ([3]; highest dose group (1274 nmol/kg IV)): died within 30 minutes of dosing
CBC counts and all observations ([3]; lower effective doses (13-51 nmol/kg)): normal
mortality ([3]; second highest dose group (510 nmol/kg), within 30-90 minutes of dosing): three out of five animals
solubility [4]: soluble in PBS

C[C@]12C=CC(=O)C=C1CC[C@@H]1[C@@H]2[C@@H](O)C[C@@]2(C)[C@H]1C[C@H]1O[C@@H](C3CCCCC3)O[C@]12C(=O)CO [dCIC, des-ciclesonide]
IL-6 concentration in knee lavage fluid normalized to total protein, compared to vehicle [2]: decrease in IL-6 concentrations
monocytes (CBC) ([3]; 2.75 hours post-treatment): dose dependent decrease
Lymphocyte counts as compared to vehicle control ([3]; 2.75 hrs post administration, Dex both doses, dCIC IA or IV): reduction in lymphocyte counts
spleen and thymus weights at euthanasia ([3]; 7 hours post administration): minimal effect on the weight of both organs
Lymphocyte counts at euthanasia ([3]; 7 hours post administration, all dose levels): either stable or starting to recover
Total WBC counts [5]: substantial reduction
lymphocyte counts [5]: substantial reduction
monocyte counts [5]: substantial reduction
solubility [4]: not soluble in water
